Laboratory results taken from patent publication US20240024498A1 (JIANGSU HENGRUI PHARMACEUTICALS, published 2024).
Residue numbers refer to the chain shown, from its start. Read-outs that look alike come from different tables or passages of the source. Each block holds one binder with its values, some of them ahead of it.

Key:
human Claudin18.2 [1] = biological target: T1, human Claudin18.2 (human); test: cell-based ELISA on fixed NUGC4 cells stably expressing Claudin18.2
T1 construct: also called hClaudin18.2; huClaudin18.2
Experimental: (§1) Cell-based ELISA assay was used to test the binding properties of the Claudin18.2 antibodies. The stably transfected Claudin18.2-expressing NUGC4 cells were cultured in a 96-well cell plate (Corning, 3599). When growing at 90% density, the cells were immobilized with 4% paraformaldehyde for 1 h. The plate was washed 3 times with PBST buffer (pH 7.4 PBS containing 0.05% Tween-20), and a PBS-diluted 5% skim milk (powdered skim milk from Brightdairy) blocking solution was added at 200 μL/well. The plate was incubated in a 37° C. incubator for 2.5 h or was let stand at 4° C. overnight (16-18 h) for blocking. After blocking, the blocking solution was removed. The plate was washed 3 times with the PBST buffer, and then a test antibody that was diluted with a sample diluent (pH 7.4 PBS containing 1% skim milk) to different concentrations was added at 50 μL/well. The plate was incubated in a 37° C. incubator for 2 h. […] The plate was incubated at 37° C. for 1 h. The plate was washed 6 times with PBST, and then TMB chromogenic substrate (KPL, 52-00-03) was added at 50 µL/well. The plate was incubated at room temperature for 10-15 min, and the reaction was terminated by adding 1 M H₂SO₄ at 50 μL/well. The absorbance at 450 nm was read using an MD Versa Max™ microplate reader, and the binding EC50 value of the Claudin18.2 antibody to Claudin18.2 was calculated.

human Claudin18.2 [2] = biological target: T1, human Claudin18.2; test: cell-based ELISA (absorbance at 450 nm) on fixed NUGC4 cells stably expressing Claudin18.2
Experimental: as §1

human Claudin18.2 [3] = biological target: T1, human Claudin18.2; test: cell-based ELISA on fixed NUGC4 cells stably expressing Claudin18.2; remark: listed apart in the source
Experimental: as §1

human Claudin18.2 [4] = biological target: T1, human Claudin18.2; test: cell-based or functional assay
human Claudin18.2 [5] = biological target: T1, human Claudin18.2; test: flow cytometry on HEK293/hClaudin18.2 cells, Scatchard plot
Experimental: On the day of experiment, HEK293/hClaudin18.2 cells were collected into a U-bottomed 96-well plate at 1×10⁵ to 2×10⁵ cells per well. A human Claudin18.2 antibody that was 2× diluted serially (12 concentration points) from an initial concentration of 5 μg/mL was added, and the plate was incubated at 4° C. for 1 h. IMAB362 was used as a positive control, and a negative control with no antibody was also provided. The antibody was removed by centrifugation, and FITC anti-human IgG Fc antibody (200×) was added at 100 μL/well. The plate was incubated in the dark at 4° C. for 30 min and washed twice with PBS+2% FBS before flow cytometry analysis. BD FACS CantoII was started and preheated, and then the BD FACSDiva software was run to start a new experiment. […] The samples in the U-bottomed 96-well plate were tested at the saved voltage, and data were recorded. The experimental data were analyzed using Flowjo software to obtain a Geo mean, and an MESF-Geo Mean standard curve was fit according to the instructions for Quantum™ FITC-5 MESF Kit. The molar concentration of the human Claudin18.2 antibody bound to HEK293/hClaudin18.2 cells and the free antibody concentration were calculated according to the concentration fluorescence value of the FITC anti-human IgG Fc antibody, and the Bmax and the dissociation constant KD of the antibody were calculated through Scatchard plots.

human Claudin18.2 [6] = biological target: T1, human Claudin18.2; test: cell-based ELISA (absorbance at 450 nm) on fixed NUGC4 cells stably expressing Claudin18.2; remark: listed apart in the source
Experimental: as §1

human Claudin18.2 [7] = biological target: T1, human Claudin18.2; test: cell-based or functional assay; remark: listed apart in the source
human Claudin18.2 [8] = biological target: T1, human Claudin18.2; test: cell-based ELISA on fixed NUGC4 cells stably expressing Claudin18.2; remark: listed apart in the source
Experimental: as §1

human Claudin18.2 [9] = biological target: T1, human Claudin18.2; test: cell-based ELISA (absorbance at 450 nm) on fixed NUGC4 cells stably expressing Claudin18.2; remark: listed apart in the source
Experimental: as §1

EC50 (human Claudin18.2 [1]): 0.098 nM
Emax (human Claudin18.2 [2]): 1.4
B1: chimeric antibody ch1901 (antibody, human IgG1, kappa, V domains shown)
VH: EVQLMESGGGLVKPGGSLKLSCAASGFTFSDYGIHWVRQAPEMGLEWIAYISRGSSTIYYADTVKGRFTMSRDNAKNTLFLQMTSLRSEDTAMYYCARGGYDTRNAMDYWGQGTSVTVSS
VL: DIVMTQSPSSLSVSAGEKVTMSCKSSQSLLNSGNQKNYLAWYQQKPGQPPKLLIYGASTRASGVPDRFTGSGSGTDFTLTISSVQAEDLAIYHCQNDLYYPLTFGAGTKLELKR
notes: Murine mAb1901 variable regions on human IgG1 / kappa constant regions

EC50 (human Claudin18.2 [3]): 0.076 nM
ADCC effect, IC50 (FcrR3A-V158-NFAT-RE-Jurkat reporter; NUGC4 cells, high Claudin18.2 expression) (human Claudin18.2 [4]): 0.0262 mg/L
ADCC effect, IC50 (FcrR3A-V158-NFAT-RE-Jurkat reporter; NUGC4 cells, low Claudin18.2 expression) (human Claudin18.2 [4]): 0.0224 mg/L
ADCC effect, IC50 (FcrR3A-V158-NFAT-RE-Jurkat reporter; NUGC4 cells, moderate Claudin18.2 expression) (human Claudin18.2 [4]): 0.0154 mg/L
Kd (human Claudin18.2 [5]): 6.8 nM
Emax (human Claudin18.2 [6]): 1.44
B2: h1901-11 (antibody, human IgG1, kappa, V domains shown)
VH: EVQLVESGGGLVQPGGSLRLSCAASGFTFSDYGIHWVRQAPGKGLEWIAYISRGSSTIYYADTVKGRFTISRDNAKNSLYLQMTSLRAEDTAVYYCARGGYDTRNAMDYWGQGTTVTVSS
VL: DIVMTQSPDSLAVSLGERATISCKSSQSLLNSGNQKNYLAWYQQKPGQPPKLLIYGASTRASGVPDRFSGSGSGTDFTLTISSLQAEDVAIYHCQNDLYYPLTFGQGTKLEIKR
notes: Humanized antibody of mAb1901, L3 + H3, human IgG1/kappa

EC50 (human Claudin18.2 [3]): 0.116 nM
Emax (human Claudin18.2 [6]): 1.22
B7: h1901-12 (antibody, human IgG1, kappa, V domains shown)
VH: B2 VH with I48V, I70M
VL: B2 VL
notes: Humanized antibody of mAb1901, L3 + H4, human IgG1/kappa

EC50 (human Claudin18.2 [1]): 0.074 nM
Emax (human Claudin18.2 [2]): 1.27
B9: chimeric antibody ch1902 (antibody, human IgG1, kappa, V domains shown)
VH: EVQLQESGAELVKPGASVKLSCKASGYIFTSYWMHWVKQRPGQGLEWIGMIHPNSGSTNYNEKFKGKATLTLDKSSSTAYMQLSSLPSEDSAVYYCARLKTGNSFDYWGQGTTLTVSS
VL: DIVLTQSPSSLTVTAGEKVTMSCKSSQSLLNSGNQKNYLTWYQQKPGQPPKLLIYWASTRESGVPDRFTGSGSGTDFTLTISSVQAEDLAIYYCQNAYTYPFTFGSGTKLEIKR
notes: Murine mAb1902 variable regions on human IgG1 / kappa constant regions

Further lines, the binder ahead of its results:

B3: ADC-5 (antibody, human IgG1, kappa, V domains shown)
VH: B2 VH
VL: B2 VL
modifications: compound 9-A coupled to sulfhydryl groups after TCEP reduction; mean drug loading n=6.8 per antibody; positions not given
in vitro cell killing EC50, NUGC4-claudin18.2 high expression cells (CellTiter-Glo) (human Claudin18.2 [7]): 3.5 nM
in vitro cell killing EC50, NUGC4-claudin18.2 low expression cells (CellTiter-Glo) (human Claudin18.2 [7]): 142 nM
in vitro cell killing Emax, NUGC4-claudin18.2 high expression cells (CellTiter-Glo) (human Claudin18.2 [7]): 95.9
in vitro cell killing Emax, NUGC4-claudin18.2 low expression cells (CellTiter-Glo) (human Claudin18.2 [7]): 69.9

B4: ADC-2 (antibody, human IgG1, kappa, V domains shown)
VH: B2 VH
VL: B2 VL
modifications: compound 9-A coupled to sulfhydryl groups after TCEP reduction; mean drug loading n=7.1 per antibody; positions not given
in vitro cell killing EC50, NUGC4-claudin18.2 high expression cells (CellTiter-Glo) (human Claudin18.2 [7]): 1.9 nM
in vitro cell killing EC50, NUGC4-claudin18.2 low expression cells (CellTiter-Glo) (human Claudin18.2 [7]): 109 nM
in vitro cell killing EC50, NUGC4-claudin18.2 moderate expression cells (CellTiter-Glo) (human Claudin18.2 [7]): 16.8 nM
in vitro cell killing Emax, NUGC4-claudin18.2 high expression cells (CellTiter-Glo) (human Claudin18.2 [7]): 91.1
in vitro cell killing Emax, NUGC4-claudin18.2 low expression cells (CellTiter-Glo) (human Claudin18.2 [7]): 69.8

B5: ADC-3 (antibody, human IgG1, kappa, V domains shown)
VH: B2 VH
VL: B2 VL
modifications: compound 9-A coupled to sulfhydryl groups after TCEP reduction; mean drug loading n=2.51 per antibody; positions not given
in vitro cell killing EC50, NUGC4-claudin18.2 high expression cells (CellTiter-Glo) (human Claudin18.2 [7]): 94 nM
in vitro cell killing EC50, NUGC4-claudin18.2 low expression cells (CellTiter-Glo) (human Claudin18.2 [7]): > 500 nM
in vitro cell killing Emax, NUGC4-claudin18.2 high expression cells (CellTiter-Glo) (human Claudin18.2 [7]): 78.7
in vitro cell killing Emax, NUGC4-claudin18.2 low expression cells (CellTiter-Glo) (human Claudin18.2 [7]): 49

B6: ADC-4 (antibody, human IgG1, kappa, V domains shown)
VH: B2 VH
VL: B2 VL
modifications: compound 9-A coupled to sulfhydryl groups after TCEP reduction; mean drug loading n=4.06 per antibody; positions not given
in vitro cell killing EC50, NUGC4-claudin18.2 high expression cells (CellTiter-Glo) (human Claudin18.2 [7]): 12 nM
in vitro cell killing EC50, NUGC4-claudin18.2 low expression cells (CellTiter-Glo) (human Claudin18.2 [7]): 299 nM
in vitro cell killing Emax, NUGC4-claudin18.2 high expression cells (CellTiter-Glo) (human Claudin18.2 [7]): 85
in vitro cell killing Emax, NUGC4-claudin18.2 low expression cells (CellTiter-Glo) (human Claudin18.2 [7]): 61

B8: IMAB-362 (antibody, human IgG1, kappa, V domains shown)
VH: QVQLQQPGAELVRPGASVKLSCKASGYTFTSYWINWVKQRPGQGLEWIGNIYPSDSYTNYNQKFKDKATLTVDKSSSTAYMQLSSPTSEDSAVYYCTRSWRGNSFDYWGQGTTLTVSS
VL: B9 VL with L4M, I91V, A97D, T99S
notes: Positive control antibody, from WO2016166122; also called positive control antibody
EC50 (human Claudin18.2 [8]): 0.187 nM
Emax (human Claudin18.2 [9]): 0.88
EC50 (human Claudin18.2 [3]): 0.086 nM
ADCC effect, IC50 (FcrR3A-V158-NFAT-RE-Jurkat reporter; NUGC4 cells, high Claudin18.2 expression) (human Claudin18.2 [4]): 0.133 mg/L
ADCC effect, IC50 (FcrR3A-V158-NFAT-RE-Jurkat reporter; NUGC4 cells, low Claudin18.2 expression) (human Claudin18.2 [4]): 0.183 mg/L
ADCC effect, IC50 (FcrR3A-V158-NFAT-RE-Jurkat reporter; NUGC4 cells, moderate Claudin18.2 expression) (human Claudin18.2 [4]): 0.21 mg/L
EC50 (human Claudin18.2 [1]): 0.108 nM
Emax (human Claudin18.2 [2]): 1.18
Kd (human Claudin18.2 [5]): 10.2 nM
Emax (human Claudin18.2 [6]): 1.11
